Results taken from patent publication US20200040059A1.
Values joined by “and” are separate entries in the source; they are usually repeats but may differ in a detail not shown here. Equal values may be shown once.

Legend:
CD112R (human) = CD112R (human) (UniProt Q6DKI7); experiment: flow cytometry, cells expressing target, 25 nM
CD226 (human) = biological target: T1, CD226 (human) (UniProt Q15762); experiment: flow cytometry, cells expressing target, 25 nM
T1 sequence: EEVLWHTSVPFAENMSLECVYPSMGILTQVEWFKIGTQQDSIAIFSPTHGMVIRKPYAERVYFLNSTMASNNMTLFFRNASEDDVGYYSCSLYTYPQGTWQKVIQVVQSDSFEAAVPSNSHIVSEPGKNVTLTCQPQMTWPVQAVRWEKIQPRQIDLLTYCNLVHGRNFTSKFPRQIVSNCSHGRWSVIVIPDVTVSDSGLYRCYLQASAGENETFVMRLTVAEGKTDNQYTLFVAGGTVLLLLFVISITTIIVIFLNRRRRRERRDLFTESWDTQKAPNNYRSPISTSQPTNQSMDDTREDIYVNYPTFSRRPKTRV

CD96 = biological target: T2, CD96 (UniProt P40200); experiment: flow cytometry, cells expressing target, 25 nM
T2 sequence (looked up): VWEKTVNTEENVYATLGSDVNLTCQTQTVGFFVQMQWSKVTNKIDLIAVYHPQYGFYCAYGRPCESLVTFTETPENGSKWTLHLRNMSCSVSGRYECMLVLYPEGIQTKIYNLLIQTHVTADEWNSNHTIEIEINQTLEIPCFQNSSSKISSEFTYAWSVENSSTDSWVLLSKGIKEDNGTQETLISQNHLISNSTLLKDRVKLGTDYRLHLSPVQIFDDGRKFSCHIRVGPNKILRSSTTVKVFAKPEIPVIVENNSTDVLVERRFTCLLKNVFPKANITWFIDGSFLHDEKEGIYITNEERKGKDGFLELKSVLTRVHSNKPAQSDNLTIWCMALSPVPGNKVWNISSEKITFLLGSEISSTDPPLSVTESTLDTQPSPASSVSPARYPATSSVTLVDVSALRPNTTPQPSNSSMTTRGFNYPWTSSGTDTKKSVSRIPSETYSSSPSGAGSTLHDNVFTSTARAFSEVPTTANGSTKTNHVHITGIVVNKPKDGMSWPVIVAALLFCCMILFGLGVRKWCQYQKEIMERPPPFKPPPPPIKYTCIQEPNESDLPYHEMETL

TIGIT (human) = biological target: T3, TIGIT (human) (UniProt Q495A1); experiment: flow cytometry, cells expressing target, 25 nM
T3 sequence: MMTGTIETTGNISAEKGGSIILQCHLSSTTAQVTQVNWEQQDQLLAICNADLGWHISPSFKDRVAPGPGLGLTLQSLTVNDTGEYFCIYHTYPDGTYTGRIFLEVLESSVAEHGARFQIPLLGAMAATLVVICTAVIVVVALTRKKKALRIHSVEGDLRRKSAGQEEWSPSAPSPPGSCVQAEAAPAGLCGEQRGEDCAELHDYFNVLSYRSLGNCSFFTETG

[1] = biological target: CD112R, expressed on transfected cells (human) (UniProt Q6DKI7); experiment: flow cytometry on transfected cells
Chain of CD112R, expressed on transfected cells (human) (Q6DKI7 whole entry): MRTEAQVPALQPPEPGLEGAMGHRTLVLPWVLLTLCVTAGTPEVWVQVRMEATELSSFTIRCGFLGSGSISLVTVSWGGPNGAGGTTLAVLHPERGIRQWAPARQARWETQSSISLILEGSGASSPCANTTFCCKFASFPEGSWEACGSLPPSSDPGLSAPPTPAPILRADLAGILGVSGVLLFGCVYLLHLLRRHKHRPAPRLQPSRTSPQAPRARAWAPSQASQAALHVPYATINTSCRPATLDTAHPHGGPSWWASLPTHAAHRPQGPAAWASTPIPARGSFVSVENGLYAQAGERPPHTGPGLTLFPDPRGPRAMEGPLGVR

[2] = biological target: CD96, expressed on transfected cells (UniProt P40200); experiment: flow cytometry on transfected cells
[3] = biological target: T4, human CD226, full length, expressed on transfected cells (human) (UniProt Q15762); experiment: flow cytometry on transfected cells
T4 sequence: T1 sequence

[4] = biological target: T5, human TIGIT, full length, expressed on transfected cells (human) (UniProt Q495A1); experiment: flow cytometry on transfected cells
T5 sequence: T3 sequence

[5] = biological target: CD80 (Homo sapiens (Human)) (UniProt P33681); experiment: flow cytometry, cells expressing CD80
Chain of CD80 (Homo sapiens (Human)) (P33681 35-288 limits assumed, form in doubt): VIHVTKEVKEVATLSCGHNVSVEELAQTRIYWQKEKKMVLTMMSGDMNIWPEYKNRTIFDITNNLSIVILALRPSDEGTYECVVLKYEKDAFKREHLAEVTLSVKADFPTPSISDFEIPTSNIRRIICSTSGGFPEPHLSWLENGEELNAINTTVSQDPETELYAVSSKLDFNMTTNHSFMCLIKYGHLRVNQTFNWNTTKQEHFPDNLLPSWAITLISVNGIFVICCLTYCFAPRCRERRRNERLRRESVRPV

[6] = biological target: PD-1 (Homo sapiens (Human)) (UniProt Q15116); experiment: flow cytometry, cells expressing PD-1
[7] = biological target: human CD28, full-length, expressed on transfected Expi293 cells (human) (UniProt P10747); experiment: flow cytometry on CD28-expressing Expi293 cells

Chain of CD112R (human) (Q6DKI7 whole entry): as the sequence (Q6DKI7 whole entry) above
Chain of wild-type CD155 IgV-Fc (P15151 24-139 limits assumed): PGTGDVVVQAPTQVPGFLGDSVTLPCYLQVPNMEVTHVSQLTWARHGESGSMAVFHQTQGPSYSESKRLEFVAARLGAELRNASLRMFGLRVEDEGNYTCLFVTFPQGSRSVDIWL

Substance	MFI at 25 nM (CD112R (human))	MFI at 25 nM (CD96)	MFI at 25 nM (TIGIT (human))	MFI at 100 nM [1]	MFI at 100 nM [2]	MFI at 100 nM [3]	MFI at 100 nM [4]	further results
CD155 variant IgV-Fc V9I, P18F, A47E, G50S, E68G, L79P, F91S, T107M (from UniProt P15151 24-139) (Fc fusion)	752 MFI	102000 MFI	55200 MFI					MFI at 25 nM (CD226 (human)): 54300 MFI
CD155 variant IgV-Fc V9L, P18L, M55V, S69L, L79P, A81E, F91S, T107M (from UniProt P15151 24-139) (Fc fusion)	920 MFI	67400 MFI	58700 MFI					
CD155 variant IgV-Fc V9L, V11M, P18S, N35S, S54G, Q62K, L79P, L104M, T107M, V115M (from UniProt P15151 24-139) (Fc fusion)	893 MFI	925 MFI	3000 MFI					MFI at 25 nM (CD226 (human)): 2320 MFI
CD155 variant IgV-Fc V10F, T15S, P18L, R48Q, L79P, F91S, T107M, V115M (from UniProt P15151 24-139) (Fc fusion)	901 MFI	998 MFI	1170 MFI					MFI at 25 nM (CD226 (human)): 792 MFI
CD155 variant IgV-Fc V10G, P18T, L72Q, L79P, F91S, T107M (from UniProt P15151 24-139) (Fc fusion)	863 MFI	3640 MFI	4250 MFI					
CD155 variant IgV-Fc V11A, P18F, D23A, L79P, G80D, V95A, T107M (from UniProt P15151 24-139) (Fc fusion)	830 MFI	33900 MFI	45200 MFI					MFI at 25 nM (CD226 (human)): 913 MFI
CD155 variant S52R, Q62F, L104Q, G111R IgV-Fc (from UniProt P15151 24-139) (Fc fusion)				1730	2360	3170	2970	
CD155 variant T45Q, S52L, L104E, G111R IgV-Fc (from UniProt P15151 24-139) (Fc fusion)				1740	1580	2390	2290	
CD155 variant T45Q, S52L, V57L, L104E IgV-Fc (from UniProt P15151 24-139) (Fc fusion)				1500	1530	5940	2860	
CD155 variant T45Q, S52Q IgV-Fc (from UniProt P15151 24-139) (Fc fusion)				1770	2450	5790	4810	
CD155 variant T45Q, S52R, G111R IgV-Fc (from UniProt P15151 24-139) (Fc fusion)				1790	2340	2080	4090	
CTLA4-Fc (Fc fusion)								MFI at 20 nM [5]: 200000; MFI at 20 nM [6]: 59
Fc Control								MFI at 20 nM [5]: 132; MFI at 20 nM [6]: 59
ICOSL variant N52S/S130G/Y152C ECD-Fc fusion (from UniProt O75144 19-256)								MFI [7]: 24 MFI
variant PD-L1 ECD-Fc G15A, I36T, M97L, K111E, H202Q (from UniProt Q9NZQ7 19-238) (Fc fusion)								MFI at 20 nM [6]: 112
variant PD-L1 ECD-Fc G15A, I36T, V129D, R195G (from UniProt Q9NZQ7 19-238) (Fc fusion)								MFI at 20 nM [6]: 125
variant PD-L1 ECD-Fc M18V, M97L, F193S, R195G, E200K, H202Q (from UniProt Q9NZQ7 19-238) (Fc fusion)								MFI at 20 nM [6]: 69
wild-type CD155 IgV-Fc (from UniProt P15151 24-139) (Fc fusion)				2170 and 1740 and 2940	1890 and 1680 and 3270	2320 and 2370 and 4690	2180 and 4690	
